These results are taken from paper PMC12361432.

Changes are numbered by the printed parent chain. In names and notes the source's numbering stands. A value given as a limit tells only on which side of the number the result lay.

The target of one experiment is CCR9 Y126A (human). The experiment in a line: flow cytometry on cells; TAMRA-labeled chemokine (four concentrations, highest 300 nM used to compare mutants) incubated 1 h with HEK293T cells expressing WT or mutant CCR9 in FACS buffer (1x PBS, 1 mM EDTA, 1% BSA); median fluorescence; nonspecific binding on parental HEK293T cells; binding ratios mutant:WT.
A further experiment has as its target CCR9 F299A (human). Described as above.
Experiment [1] concerns the target T1, TAMRA-labeled CCL25 (CCL25(1-73), norleucine 64, C-terminal azidolysine coupled to TAMRA-PEG4-DBCO).
T1 chain: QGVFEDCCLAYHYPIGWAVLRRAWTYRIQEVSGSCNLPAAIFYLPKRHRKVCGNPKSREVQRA
The experiment in a line: flow cytometry on cells. The note with it: chain shown with the change; 300 nM TAMRA-CCL25; HEK293T cells; read off a plot. A general note: In flow cytometry, cells or beads pass a laser one at a time.

As for “TAMRA-labeled CCL25 (CCL25(1-73), norleucine 64, C-terminal azidolysine coupled to TAMRA-PEG4-DBCO) (ligand)”, the CCL25-induced Ca^2+ response in HEK293T cells expressing the CCR9 mutant, percent of WT output (CCL25 without dye) with CCR9 D296A (human) turned out to be 15%; in the experiment with CCR9 S292A (human), 48%. The CCL25-induced Ca^2+ mobilization in HEK293T cells expressing the CCR9 mutant, area under the concentration-response curve against WT (CCL25 without dye) in the experiment with CCR9 R44A (human), with CCR9 K211A (human), with CCR9 K40A (human) and with CCR9 Y202A (human) was less than 15% throughout. The fold change in binding against WT CCR9 in the experiment with CCR9 Y126A (human) turned out to be 2.5 fold; in the experiment with CCR9 F299A (human) it was 2.2 fold.

B1: C-C chemokine receptor 9 (CCR9), wild type Y202A (protein)
chain: MTPTDFTSPIPNMADDYGSESTSSMEDYVNFNFTDFYCEKNNVRQFASHFLPPLYWLVFIVGALGNSLVILVYWYCTRVKTMTDMFLLNLAIADLLFLVTLPFWAIAAADQWKFQTFMCKVVNSMYKMNFYSCVLLIMCISVDRYIAIAQAMRAHTWREKRLLYSKMVCFTIWVLAAALCIPEILYSQIKEESGIAICTMVAPSDESTKLKSAVLTLKVILGFFLPFVVMACCYTIIIHTLIQAKKSSKHKALKVTITVLTVFVLSQFPYNCILLVQTIDAYAMFISNCAVSTNIDICFQVTQTIAFFHSCLNPVLYVFVGERFRRDLVKTLKNLGCISQAQWVSFTRREGSLKLSSMLLETTSGALSL
As to B1, the ratio to parent in [1] turned out to be 0.73.

B2: C-C chemokine receptor 9 (CCR9), wild type R44A (protein)
chain: B1 chain with R44A, A202Y
On to B2, for which the ratio to parent in [1] was 0.61.

B3: C-C chemokine receptor 9 (CCR9), wild type K211A (protein)
chain: B1 chain with A202Y, K211A
Turning to B3, the ratio to parent in experiment [1] was 1.1.

B4: C-C chemokine receptor 9 (CCR9), wild type S292A (protein)
chain: B1 chain with A202Y, S292A
Regarding B4, the ratio to parent in experiment [1] stood at 0.66.

B5: C-C chemokine receptor 9 (CCR9), wild type K40A (protein)
chain: B1 chain with K40A, A202Y
B5: the ratio to parent in experiment [1] stood at 0.83.

B6: C-C chemokine receptor 9 (CCR9), wild type D296A (protein)
chain: B1 chain with A202Y, D296A
In the case of B6, the ratio to parent in experiment [1] is 0.81.
